T1: Rhesus negative rbc, phenotype ccddee (Rhesus c and e antigens, no D) (human, UniProt P18577 2-417)
T1 construct: whole, on cells; the thing tested is the whole red cell; also called rr
T1 sequence (looked up): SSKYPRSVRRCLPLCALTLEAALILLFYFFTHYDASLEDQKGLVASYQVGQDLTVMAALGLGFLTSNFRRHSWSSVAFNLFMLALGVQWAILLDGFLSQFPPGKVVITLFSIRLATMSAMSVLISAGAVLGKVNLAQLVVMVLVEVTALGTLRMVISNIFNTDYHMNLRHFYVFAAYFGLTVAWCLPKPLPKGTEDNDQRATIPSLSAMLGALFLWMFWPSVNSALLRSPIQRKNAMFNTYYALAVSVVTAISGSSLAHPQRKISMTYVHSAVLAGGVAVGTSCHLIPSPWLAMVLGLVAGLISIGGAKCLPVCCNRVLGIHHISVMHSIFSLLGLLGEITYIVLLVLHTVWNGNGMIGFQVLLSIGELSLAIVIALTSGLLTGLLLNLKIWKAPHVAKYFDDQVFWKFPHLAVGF

T2: Rhesus D antigen (human, UniProt Q02161 2-417)
T2 construct: whole, on cells; R1R1 cells also carry C and e; also called RhD; on rbc R1R1 (CDe/CDe, CCDDee)
T2 sequence (looked up): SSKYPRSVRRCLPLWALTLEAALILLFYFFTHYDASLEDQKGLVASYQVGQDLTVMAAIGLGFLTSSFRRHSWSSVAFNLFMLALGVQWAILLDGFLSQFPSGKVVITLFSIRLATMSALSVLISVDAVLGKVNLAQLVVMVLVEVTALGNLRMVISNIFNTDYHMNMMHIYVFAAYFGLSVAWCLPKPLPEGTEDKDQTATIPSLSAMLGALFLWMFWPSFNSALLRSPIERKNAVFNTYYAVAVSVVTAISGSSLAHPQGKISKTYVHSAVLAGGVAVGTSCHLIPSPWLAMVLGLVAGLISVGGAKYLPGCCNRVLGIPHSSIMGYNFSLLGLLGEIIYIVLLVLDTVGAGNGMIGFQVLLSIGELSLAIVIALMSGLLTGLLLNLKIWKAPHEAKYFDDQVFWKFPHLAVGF

B1: Fab clone LD2-14 (Fab, V domains shown)
VH: QVKLLESGGGVVQPGGSLRVACVASGFTFRNFGMHWVRQAPGKGLEWVAFIWFDASNKGYGDSVKGRFTVSRDNSKNTLYLQMNGLRAEDTAVYYCAREKAVRGISRYNYYMDVWGKGTTVTVSS
VL: VMTQSPSSLSASVGDRVTITCRASQSIINNLNWYQQKPGKAPELLIYAASSLQSGVPSRFRGSGSGRDFTLTVTSLQPEDFATYYCQQSYSTLWTFGQGTKVEIK
notes: human soluble Fab from pComb3 in E. coli
B2: Fab clone LD1/2-6-3 (Fab, V domains shown)
VH: B1 VH
VL: VMTQSPSSLSASVGDRVTITCRASQSIIRYLNWYQHKPGKAPKLLIHTASSLQSGVPSRFSGSVSGTDFTLTISSLQPEDFATYYCQQSYTTPYTFGQGTKLQIK
B3: Fab clone LD1/2-6-33 (Fab, V domains shown)
VH: B1 VH
VL: B2 VL with S8F, T48A
B4: Fab clone LD2-17 (Fab, V domains shown)
VH: QVKLLESGGGVVQPGGSLRLSCVASGFTFRSYGMHWVRQAPGKGLEWVAFIWFDGSNKGYVDSVKGRFTISRDNSKNTLYLQMKSLRAEDTAVYYCAREKALRGISRYNYYLDVWGKGTTVTVSS
VL: VMTQSPFSLSASVGDRVTITCRASQNIRSFLSWYQQKPGTAPKLLIYAASRLQSGVPSRFSGSGSGTDFTLTISTLQPEDFATYYCQQSYSAPWTFGQGTKLEIK
notes: as for B1
B5: Fab clone LD2-20 (Fab, V domains shown)
VH: B4 VH with F29S
VL: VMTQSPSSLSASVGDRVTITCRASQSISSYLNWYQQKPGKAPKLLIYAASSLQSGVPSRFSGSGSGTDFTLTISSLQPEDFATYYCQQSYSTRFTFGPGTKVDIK
notes: as for B1
B6: Fab clone LD2-5 (Fab, V domains shown)
VH: B4 VH with V11L, T78M, K84N, T119A
VL: VMTQSPSSLSASIGDRVTITCRASQSVTRSLNWYQQKPGKAPRLLIFAASTLQSGVPSRFSGSGSGTDFTLTISSLQPEDFGTYYCQQNYRTPQWTFGQGTKVEIK
notes: as for B1
B7: Fab clone LD2-11 (Fab, V domains shown)
VH: QVKLLESGGGVVQPGGSLRLSCEASGFTLRSSGMHWVRQAPGKGLEWVALIWFDGSIRSYAESVKGRFTISRDTSKNTLYLQMRSLSADDTAVYYCARDKAVRGISRYNYYMDVWGKGTTVTVSS
VL: VLTQSPSSLSASIRDRVTITCRASQNIGSYLNWYQHKPGTAPKLLIYAVSALQSGVPSRFSGSRSGTDFTLTISSLQPEDFATYYCQQSYSPPYTFGQGTNLQIK
notes: as for B1
B8: Fab clone LD2-4 (Fab, V domains shown)
VH: B7 VH
VL: VMTQSPSSLSASVGDRVTITCRTSQTISRNLNWYQQKPGKAPKLLIYATSSLQSGVPSRFSGSGSGTDFTLTINSLQPEDFATYYCQQSYTTPSFGQGTKVEIK
notes: as for B1
B9: Fab clone LD1-52 (Fab, V domains shown)
VH: B7 VH with T28A
VL: VMTQSPSSLSASVGDRVTITCRASQNIIRYLNWYQQKPGKAPRLLIYGASTLQSGVPSRFSGSGSGTDFTLTISSLQPEDFATYYCQQSYRTPPFTFGPGTKVEIK
notes: as for B1
B10: Fab clone LD1-84 (Fab, V domains shown)
VH: B7 VH
VL: VMTQSPSSLSASIGDRVTITCRASQSIIRYLNWYQHKPGKAPKLLIFAASNLQTGVPSRFSGSGSGTDFTLTISDLQPEDFATYYCQQSYSRPFTFGRGTSLDIK
notes: as for B1
B11: Fab clone LD1-117 (Fab, V domains shown)
VH: QVKLLESGGGVVQPGKSLRLSCAASGFSFNSHGMHWVRQAPGKGLEWVAFIWFDGSNKYYADSVKGRFTITRDNSKNTLYLQMNSLRAEDTAVYYCARETSVRLGYSRYNYYMDVWGKGTTVTISS
VL: VMTQSPSSLSASVGDRVTITCRASQSIRSHLNWYQQKPGKAPKLLIYAASSLQGGVPSRFSGSGSGTDFTLTISSLQPEDFATYYCQQSYRAPQWTFGQGTKVEIK
notes: as for B1
B12: Fab clone LD1-40 (Fab, V domains shown)
VH: QVKLLESGGGVVQPGRSLRLSCIASGFTLRNYAMHWVRQAPGKGLEWVAGIWFDGSNKNYADSVKGRFTISRDNSKNTLYLQLNSLRDEDTAVYYCARERAARGISRFYYYMDVWGKGTTVTVSP
VL: VMTQSPSSLSASVGDRVTITCRASQSIRSHLNWYQQKPGKAPKLLIYGASTLQSGVPSRFSGSGSGAVFTLTIASLQPEDFATYYCQESYSNPLITFGQGTRLETK
notes: as for B1
B13: Fab clone LD1-110 (Fab, V domains shown)
VH: B12 VH with Y80F, Q82H, L83M, D88A, V93T, A102I, F108Y, Y109N, P125S
VL: VMTQSPSSLSASVGDRVTITCRASQSIRSSLNWYQQKPGKAPKVLIYAASSLQSGVPSRFSGRGSGTDFTLTISSLQPEDFATYYCQQSSSSSWTFGQGTKVEIK
notes: as for B1

Positions count from the first letter of the chain named.

In the first assay the target is T1, Rhesus negative rbc, phenotype ccddee …. The assay can be described thus: indirect haemagglutination, Fab fragment, rbc rr.
For B1, the binding result is reported as “no binding”.

The next assay deals with T2, Rhesus D antigen. Nature of the assay: indirect haemagglutination, rbc CCDDee.
Take B2: the binding result is reported as “binds”. Regarding B3, the binding result is given as “binds”.

The next assay concerns the target T2, Rhesus D antigen. Nature of the assay: haemagglutination, rbc.
Turning to B4, the binding result is “binds”.

Regarding B5, the binding result is on record as “binds”. Same read-out and setting: then B6, with “binds”. B7: the binding result is given as “binds”. On the same count and under the same terms, then B8, with “binds”; and B9, with “binds”. Consider B10, for which the binding result was “binds”.

As for B11, the binding result is “binds”. Regarding B12, the binding result was “binds”. The same measure, in the same setting: under B13 stands “binds”.

The next assay addresses T1, Rhesus negative rbc, phenotype ccddee …. Nature of the assay: indirect haemagglutination, rbc ccddee.
As to B2, the binding result is “no binding”. B3: the binding result is “no binding”.

A further assay deals with T2, Rhesus D antigen. Nature of the assay: indirect haemagglutination, Fab fragment, rbc R1R1.
On to B1, for which the binding result was “binds”.
